Assay [1] concerns the target recombinant fragment of human VE-cadherin extracellular region, CAD 1-4 fragment (Asp48-Glu478, preceded by Met), SEQ ID NO: 4 (human) (UniProt P33151). The experiment in a line: sandwich ELISA, BV9 capture, rabbit polyclonal detection; CAD1-4 at 1.25 ng/mL; mean OD minus OD at 0 ng/mL.
Assay [2] shares this target. The experiment in a line: sandwich ELISA, BV9 capture, rabbit polyclonal detection; CAD1-4 at 1.25 ng/mL; first replicate.
Assay [3] has the same target. In words: sandwich ELISA, BV9 capture, rabbit polyclonal detection; CAD1-4 at 10 ng/mL; second replicate. (In an ELISA, binding on a coated surface is turned into a signal by an enzyme label.)
For assay [4] the target is unchanged. The experiment in a line: sandwich ELISA, BV9 capture, rabbit polyclonal detection; CAD1-4 at 0.63 ng/mL.
For assay [5] the target is unchanged. In words: sandwich ELISA, BV9 capture, rabbit polyclonal detection; CAD1-4 at 2.5 ng/mL; mean OD minus OD at 0 ng/mL.
The target is the same in assay [6]. The experiment in a line: sandwich ELISA, BV9 capture, rabbit polyclonal detection; CAD1-4 at 10 ng/mL; mean OD minus OD at 0 ng/mL.
Assay [7] has the same target. The experiment in a line: sandwich ELISA, BV9 capture, rabbit polyclonal detection; CAD1-4 at 2.5 ng/mL.
Assay [8] has the same target. In words: sandwich ELISA, BV9 capture, rabbit polyclonal detection; CAD1-4 at 10 ng/mL.
Assay [9] has the same target. The experiment in a line: sandwich ELISA, BV9 capture, rabbit polyclonal detection; CAD1-4 at 0.63 ng/mL. This is another data set of the same source.
Assay [10] has the same target. In words: sandwich ELISA, BV9 capture, rabbit polyclonal detection; CAD1-4 at 5 ng/mL; second replicate.
Assay [11] shares this target. In words: sandwich ELISA, BV9 capture, rabbit polyclonal detection; CAD1-4 at 2.5 ng/mL. The source holds these as a separate data set.
The target is the same in assay [12]. In words: sandwich ELISA, BV9 capture, rabbit polyclonal detection; CAD1-4 at 2.5 ng/mL; second replicate.
For assay [13] the target is unchanged. The experiment in a line: sandwich ELISA, BV9 capture, rabbit polyclonal detection; CAD1-4 at 0.63 ng/mL; first replicate.

Sequence of UniProt P33151 (P33151 other isoform, or with tags, fused parts or gaps limits assumed): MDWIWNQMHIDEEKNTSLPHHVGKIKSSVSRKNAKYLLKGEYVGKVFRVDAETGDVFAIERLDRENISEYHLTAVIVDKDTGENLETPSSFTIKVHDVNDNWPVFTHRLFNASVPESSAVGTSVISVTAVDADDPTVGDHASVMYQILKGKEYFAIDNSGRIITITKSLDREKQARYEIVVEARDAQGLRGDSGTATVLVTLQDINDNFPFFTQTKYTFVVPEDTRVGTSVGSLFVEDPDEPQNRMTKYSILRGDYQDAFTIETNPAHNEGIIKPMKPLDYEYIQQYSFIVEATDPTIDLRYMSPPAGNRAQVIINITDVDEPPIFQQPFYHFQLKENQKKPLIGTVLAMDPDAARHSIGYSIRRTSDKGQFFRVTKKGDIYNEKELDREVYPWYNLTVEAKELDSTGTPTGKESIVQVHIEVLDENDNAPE

Turning to “anti-VEcadherin mouse mAb, clone BV9 (Abcam, product datasheet ab7047) (antibody)”, the Corr. OD worked out at 0.116 OD in assay [1], 0.288 OD in assay [5] and 1.06 OD in assay [6]. The OD was 1.07 OD in assay [2]; 2 OD in [3]; 1.45 OD in assay [10]; 1.09 OD in assay [12]; 0.975 OD in assay [13]. The OD1 stood at 0.794 OD in [4] and 0.988 OD in [7]. Besides, the OD2 stood at 0.789 OD in assay [4] and 0.985 OD in assay [7]. The mean OD was determined as 0.792 OD in assay [4]; 0.987 OD in assay [7]; 1.95 OD in [8]; 0.937 OD in assay [9]; 1.17 OD in [11].

For the origin of these results see patent US20100120171A1.
